One data set addresses T1, OsNF-YB7-His (Oryza sativa, UniProt A6BLV7 1-254).
T1 sequence: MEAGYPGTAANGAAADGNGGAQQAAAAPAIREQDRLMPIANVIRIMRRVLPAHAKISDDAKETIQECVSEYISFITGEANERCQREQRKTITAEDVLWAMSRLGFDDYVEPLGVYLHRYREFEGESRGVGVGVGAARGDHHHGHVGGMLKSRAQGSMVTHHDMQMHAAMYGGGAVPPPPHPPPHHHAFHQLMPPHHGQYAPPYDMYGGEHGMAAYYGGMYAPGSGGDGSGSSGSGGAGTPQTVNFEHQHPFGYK
In words: EMSA; Beyotime EMSA/Gel-Shift kit (GS009), manufacturer's conditions; 2 or 4 uM protein in Figure 6G; buffer, salt, pH and temperature not stated. Conditions: protein: recombinant, tags: His (pET-28a), blunt.

The target in a further data set is T2, OsGLK1-MBP (Oryza sativa, UniProt Q5Z5I4 1-455).
T2 sequence: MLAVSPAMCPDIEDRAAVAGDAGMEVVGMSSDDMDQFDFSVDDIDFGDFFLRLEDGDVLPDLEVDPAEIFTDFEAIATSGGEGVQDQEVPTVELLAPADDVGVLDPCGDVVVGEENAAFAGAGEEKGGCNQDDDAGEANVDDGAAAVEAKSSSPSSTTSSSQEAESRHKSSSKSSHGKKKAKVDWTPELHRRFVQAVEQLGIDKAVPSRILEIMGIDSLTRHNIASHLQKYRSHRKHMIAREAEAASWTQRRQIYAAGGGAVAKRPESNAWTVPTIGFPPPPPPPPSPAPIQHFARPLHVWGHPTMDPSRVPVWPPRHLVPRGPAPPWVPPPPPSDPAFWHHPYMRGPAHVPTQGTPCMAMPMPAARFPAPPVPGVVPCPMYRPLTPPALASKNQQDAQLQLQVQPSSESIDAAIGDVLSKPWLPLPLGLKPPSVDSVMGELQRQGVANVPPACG
The data set is described as above. Conditions: protein: recombinant; tags: MBP (pMAL-c5X); label: biotin (3' hydroxyl end of both strands); blunt.

[1] abbreviates: label: biotin (3' hydroxyl end of both strands).

This note sets out measurements from publication PMC11407766, “OsNF-YB7 inactivates OsGLK1 to inhibit chlorophyll biosynthesis in rice embryo”.

B1: OsPORA promoter probe (dsDNA)
DNA 1: TACGAAAAAATATCCCACCACGTGTCGCTTTCACAGGACAAT
DNA 2: ATTGTCCTGTGAAAGCGACACGTGGTGGGATATTTTTTCGTA
Turning to B1, the binding result with OsNF-YB7-His (setting [1]) and with OsGLK1-MBP was “binds” in each case.

B2: OsGLK1 promoter probe (dsDNA)
DNA 1: TTTTGCAGAAGCGACCAAGCTGCACTTGCGCTCGCGGACAAGGCAACCCA
DNA 2: TGGGTTGCCTTGTCCGCGAGCGCAAGTGCAGCTTGGTCGCTTCTGCAAAA
As to B2, in the data set with OsNF-YB7-His (label: biotin), the binding result was “no binding”.

B3: OsLHCB4 promoter probe (dsDNA)
DNA 1: CCCAATCCCAGCCCTCCACGTGTCACCAACCCCATGGC
DNA 2: GCCATGGGGTTGGTGACACGTGGAGGGCTGGGATTGGG
For the molecule B3, the binding result in the data set with OsNF-YB7-His (setting [1]) and with OsGLK1-MBP was “binds” each time.
